Measurements published in patent publication US20200157212A1 (Pfizer, published 2020).

Assays:
[1] = target: T1, Human ROBO2 overexpressed on HEK293 cells (human, UniProt Q9HCK4 22-1378); test: flow cytometry, HEK293 cells
T1 construct: also called ROBO2 cells; native ROBO2
T1 sequence: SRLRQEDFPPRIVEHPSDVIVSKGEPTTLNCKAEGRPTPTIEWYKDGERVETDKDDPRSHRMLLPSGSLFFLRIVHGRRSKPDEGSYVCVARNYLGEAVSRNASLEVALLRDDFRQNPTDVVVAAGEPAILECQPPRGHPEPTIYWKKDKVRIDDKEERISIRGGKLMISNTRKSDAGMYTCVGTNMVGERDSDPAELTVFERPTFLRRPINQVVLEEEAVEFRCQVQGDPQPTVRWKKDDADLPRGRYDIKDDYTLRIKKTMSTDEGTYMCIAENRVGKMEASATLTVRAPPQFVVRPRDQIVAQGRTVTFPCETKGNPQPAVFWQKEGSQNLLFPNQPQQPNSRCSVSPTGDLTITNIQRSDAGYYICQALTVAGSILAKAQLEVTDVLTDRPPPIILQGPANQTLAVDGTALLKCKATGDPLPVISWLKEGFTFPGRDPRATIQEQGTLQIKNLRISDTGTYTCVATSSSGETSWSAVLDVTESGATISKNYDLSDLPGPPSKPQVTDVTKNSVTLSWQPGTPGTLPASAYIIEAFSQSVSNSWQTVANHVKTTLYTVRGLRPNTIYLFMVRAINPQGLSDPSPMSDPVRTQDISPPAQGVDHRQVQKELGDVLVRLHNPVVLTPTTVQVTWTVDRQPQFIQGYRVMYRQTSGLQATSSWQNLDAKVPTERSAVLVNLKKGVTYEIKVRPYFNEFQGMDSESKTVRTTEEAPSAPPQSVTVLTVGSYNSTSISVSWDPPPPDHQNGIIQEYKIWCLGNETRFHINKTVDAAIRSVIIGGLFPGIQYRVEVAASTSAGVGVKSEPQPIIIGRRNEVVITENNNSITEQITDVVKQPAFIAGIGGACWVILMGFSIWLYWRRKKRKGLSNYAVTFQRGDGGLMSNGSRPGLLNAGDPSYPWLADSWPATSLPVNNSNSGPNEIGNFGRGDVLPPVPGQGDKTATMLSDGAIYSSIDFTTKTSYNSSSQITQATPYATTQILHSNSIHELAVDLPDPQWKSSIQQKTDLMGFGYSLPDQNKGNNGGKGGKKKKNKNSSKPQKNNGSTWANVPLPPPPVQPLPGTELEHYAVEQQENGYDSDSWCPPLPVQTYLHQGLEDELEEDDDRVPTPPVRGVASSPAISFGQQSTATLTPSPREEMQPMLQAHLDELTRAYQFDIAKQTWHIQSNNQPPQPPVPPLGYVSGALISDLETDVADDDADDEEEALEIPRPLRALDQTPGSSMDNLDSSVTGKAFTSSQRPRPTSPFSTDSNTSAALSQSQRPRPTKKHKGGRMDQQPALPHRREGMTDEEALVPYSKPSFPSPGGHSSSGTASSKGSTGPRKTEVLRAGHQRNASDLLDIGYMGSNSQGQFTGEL

[2] = target: T2, Human ROBO1 overexpressed on HEK293 cells (human, UniProt Q9Y6N7 26-1651); test: flow cytometry on HEK293 cells overexpressing human ROBO1
T2 construct: also called ROBO1 cells
Experimental: The binding profile of Abcs35-J compared to Abcs35 was determined for human ROBO2, orthologs from cynomolgus monkey and rat, human ROBO1 and specificity for the RSK epitope from ROBO2 but not KSR from ROBO1. Binding was assessed by flow cytometry as described in Examples 2 (homolog specificity), Example 3 (ortholog reactivity) and Example 5 (RSK vs KSR epitope specificity). […] Binding of the antibodies was detected using a secondary fluorochrome conjugated anti-human IgG F(ab′)₂ antibody and samples analyzed on a Fortessa cytometer (BD Biosciences). […] FIGS. 16A-16F depicts binding profiles of Abcs35 (black circles) or Abcs35-J (grey squares) to human ROBO2 (FIG. 16A), cynomolgus monkey ROBO2 (FIG. 16B), rat ROBO2 (FIG. 16C), human ROBO1 (FIG. 16D), ROBO1 containing the ROBO2 RSK epitope (FIG. 16E) or ROBO2 containing the ROBO1 KSR epitope (FIG. 16 F).

T2 sequence (Q9Y6N7 26-1651 limits assumed): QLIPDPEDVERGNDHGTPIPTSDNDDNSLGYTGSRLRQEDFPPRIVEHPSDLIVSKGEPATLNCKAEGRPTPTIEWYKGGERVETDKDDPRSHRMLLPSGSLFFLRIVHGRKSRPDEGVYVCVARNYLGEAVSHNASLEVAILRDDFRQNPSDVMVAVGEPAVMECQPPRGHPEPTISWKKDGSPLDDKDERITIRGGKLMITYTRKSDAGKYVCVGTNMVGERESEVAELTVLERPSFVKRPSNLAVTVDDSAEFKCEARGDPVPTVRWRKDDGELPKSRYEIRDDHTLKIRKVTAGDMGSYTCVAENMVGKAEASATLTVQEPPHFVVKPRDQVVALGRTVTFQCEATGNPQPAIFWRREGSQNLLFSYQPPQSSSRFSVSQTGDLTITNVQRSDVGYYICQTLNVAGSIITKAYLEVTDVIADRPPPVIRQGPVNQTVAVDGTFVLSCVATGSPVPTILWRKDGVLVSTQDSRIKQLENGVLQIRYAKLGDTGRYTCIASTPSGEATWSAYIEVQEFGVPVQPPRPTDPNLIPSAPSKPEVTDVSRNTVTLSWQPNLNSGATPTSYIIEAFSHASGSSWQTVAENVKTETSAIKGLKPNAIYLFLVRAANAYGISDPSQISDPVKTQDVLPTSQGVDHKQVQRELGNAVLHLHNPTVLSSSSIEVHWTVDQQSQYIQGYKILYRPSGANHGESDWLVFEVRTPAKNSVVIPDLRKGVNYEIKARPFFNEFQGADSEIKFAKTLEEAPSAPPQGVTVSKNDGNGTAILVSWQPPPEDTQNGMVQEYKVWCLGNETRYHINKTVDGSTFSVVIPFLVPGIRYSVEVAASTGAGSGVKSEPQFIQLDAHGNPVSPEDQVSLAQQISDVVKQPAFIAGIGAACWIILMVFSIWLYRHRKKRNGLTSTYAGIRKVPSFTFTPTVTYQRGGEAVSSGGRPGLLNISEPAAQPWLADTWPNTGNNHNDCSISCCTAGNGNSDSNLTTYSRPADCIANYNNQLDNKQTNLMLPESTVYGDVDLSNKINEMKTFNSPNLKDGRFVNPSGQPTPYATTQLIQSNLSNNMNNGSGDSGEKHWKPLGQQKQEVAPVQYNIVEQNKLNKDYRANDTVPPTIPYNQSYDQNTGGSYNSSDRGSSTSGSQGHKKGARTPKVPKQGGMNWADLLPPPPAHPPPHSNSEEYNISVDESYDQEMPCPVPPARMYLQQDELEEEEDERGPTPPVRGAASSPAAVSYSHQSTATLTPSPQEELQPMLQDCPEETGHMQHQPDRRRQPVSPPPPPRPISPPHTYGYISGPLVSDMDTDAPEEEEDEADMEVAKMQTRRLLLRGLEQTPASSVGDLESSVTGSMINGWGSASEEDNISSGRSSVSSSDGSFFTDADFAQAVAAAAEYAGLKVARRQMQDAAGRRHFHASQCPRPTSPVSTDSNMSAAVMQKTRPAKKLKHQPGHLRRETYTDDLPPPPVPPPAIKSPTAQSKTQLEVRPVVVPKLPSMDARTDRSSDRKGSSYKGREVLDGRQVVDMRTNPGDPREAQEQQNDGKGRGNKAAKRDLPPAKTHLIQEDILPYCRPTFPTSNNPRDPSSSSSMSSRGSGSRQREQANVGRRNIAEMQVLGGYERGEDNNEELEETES

Binder	EC50 [1]	binding result [2]
Abcs35 (antibody, human IgG1, kappa, fully human IgG1; VH of Ab96 with VL of Ab123) heavy: EVQLVQSGAEVKKPGASVKVSCKASGYTFTGYYMHWVRQAPGQGLEWMGWINPKNGDTEFPQKFQGRVTMTRDTSITTAYMDLSRLRSDDTAVYYCARESGDDAFDIWGQGTMVTVSSASTKGPSVFPLAPSSKSTSGGTAALGCLVKDYFPEPVTVSWNSGALTSGVHTFPAVLQSSGLYSLSSVVTVPSSSLGTQTYICNVNHKPSNTKVDKKVEPKSCDKTHTCPPCPAPEAAGAPSVFLFPPKPKDTLMISRTPEVTCVVVDVSHEDPEVKFNWYVDGVEVHNAKTKPREEQYNSTYRVVSVLTVLHQDWLNGKEYKCKVSNKALPAPIEKTISKAKGQPREPQVYTLPPSREEMTKNQVSLTCLVKGFYPSDIAVEWESNGQPENNYKTTPPVLDSDGSFFLYSKLTVDKSRWQQGNVFSCSVMHEALHNHYTQKSLSLSPGK light: DIVMTQSPSSLSASVGDRVTITCRASQSISSYLNWYQQKPGKAPKLLIYAASSLQSGVPSRFSGSGSGTDFTLTISSLQPEDFATYYCQQSVGLFFGGGTKVEIKRTVAAPSVFIFPPSDEQLKSGTASVVCLLNNFYPREAKVQWKVDNALQSGNSQESVTEQDSKDSTYSLSSTLTLSKADYEKHKVYACEVTHQGLSSPVTKSFNRGEC	0.089 nM	no binding (tested: last point just below 10^1 nM)
Abcs35-J (antibody, human IgG1, kappa, germlined variant of Abcs35; also called ABCS-J) heavy: EVQLVQSGAEVKKPGASVKVSCKASGYTFTGYYMHWVRQAPGQGLEWMGWINPKNGDTEFPQKFQGRVTMTRDTSITTAYMELSRLRSDDTAVYYCARESGDDAFDIWGQGTMVTVSSASTKGPSVFPLAPSSKSTSGGTAALGCLVKDYFPEPVTVSWNSGALTSGVHTFPAVLQSSGLYSLSSVVTVPSSSLGTQTYICNVNHKPSNTKVDKKVEPKSCDKTHTCPPCPAPEAAGAPSVFLFPPKPKDTLMISRTPEVTCVVVDVSHEDPEVKFNWYVDGVEVHNAKTKPREEQYNSTYRVVSVLTVLHQDWLNGKEYKCKVSNKALPAPIEKTISKAKGQPREPQVYTLPPSREEMTKNQVSLTCLVKGFYPSDIAVEWESNGQPENNYKTTPPVLDSDGSFFLYSKLTVDKSRWQQGNVFSCSVMHEALHNHYTQKSLSLSPGK light: not shown	0.102 nM	no binding (tested: last point just below 10^1 nM)
